The values below come from patent US20210284747A1 (CAPELLA BIOSCIENCE, published 2021).

For assay [1], the target named is T1, Human LIGHT stably expressed on EL4 cells (EL4-LIGHT) (human, UniProt O43557 1-240).
T1 construct: whole, on cells; also called membrane LIGHT
As to the kind of experiment: flow cytometry competition on EL4-LIGHT cells, co-incubation 40 min 4 C; blocked ligand DcR3-Fc-AF647 0.8 ug/ml; same IC50 as 0.020ug/ml, second unit printed. How it is done: (§1) EL4-LIGHT cells were co-incubated with Alexa Fluor 647 conjugated DcR3-Fc (DcR3-Fc-AF647; 0.8 μg/ml) and graded concentrations (31 μg/ml to 128 μg/ml) of anti-membrane LIGHT antibodies (3B04, 03D12 and 02B111) for 40 min at 4° C. A control, of a mAb that binds both soluble and membrane LIGHT was included (F19 from EP2292663). The samples were washed three times and flow cytometry analysis was performed. Specific mean fluorescence intensity (MFI) obtained from the binding of DcR3-Fc-AF647 to LIGHT on EL4 cells were used to determine the levels of competition binding.

Assay [2] addresses LIGHT without residues 81-84, stably expressed on EL4 cells (EL4-NC-LIGHT). As to the kind of experiment: cell-based or functional assay.
The target of assay [3] is T2, Human LIGHT-32L, on II23 cells (human, UniProt O43557 1-240).
T2 construct: also called II23-LIGHT 32L
T2 chain: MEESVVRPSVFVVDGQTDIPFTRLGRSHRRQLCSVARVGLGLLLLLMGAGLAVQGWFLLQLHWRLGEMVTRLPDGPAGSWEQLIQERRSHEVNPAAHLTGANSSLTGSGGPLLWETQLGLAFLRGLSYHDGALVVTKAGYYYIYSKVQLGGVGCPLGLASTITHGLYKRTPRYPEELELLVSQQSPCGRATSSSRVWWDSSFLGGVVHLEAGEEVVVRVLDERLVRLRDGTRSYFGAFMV
Put plainly: flow cytometry on II23-LIGHT 32L cells, 4 ug mAb in 100 uL, goat anti-human Fc gamma-PE; signal as % of the commercial anti-LIGHT-PE. In outline:
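Cells blocked with anti-CD16/CD32, then stained 30 min at room temperature with 4 ug mAb per 100 uL, followed by 1:100 goat anti-human Fcγ-PE at 4° C. for 30 min. After paraformaldehyde fixation, signal read by flow cytometry.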

Assay [4] concerns the target T3, Recombinant human soluble LIGHT, amino acids 74-240 (R&D Systems 664-LI) (human, UniProt O43557 74-240).
T3 construct: range 74-240; Glycosylated trimer by native MS; also called 74-240 LIGHT
T3 chain: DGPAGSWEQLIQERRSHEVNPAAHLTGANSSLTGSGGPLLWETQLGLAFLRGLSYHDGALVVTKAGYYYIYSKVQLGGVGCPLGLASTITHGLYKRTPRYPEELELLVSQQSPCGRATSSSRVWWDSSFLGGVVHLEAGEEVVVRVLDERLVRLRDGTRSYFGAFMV
As to the kind of experiment: summary statement comparing soluble LIGHT binding with membrane LIGHT binding; soluble LIGHT preparation not specified.

Assay [5] addresses T1, Human LIGHT stably expressed on EL4 …. As to the kind of experiment: flow cytometry competition on EL4-LIGHT cells, co-incubation 40 min 4 C; blocked ligand DcR3-Fc-AF647 0.8 ug/ml; same IC50 as 0.031ug/ml, second unit printed. On the procedure:
as §1

B1: 3B04 chimeric IgG4 mAb (antibody, V domains shown)
VH: QVQLQQPGAELVRPGASVTLSCKASGYTFTDYEMHWVKQTPVHGLEWIGEIDPETGDTAYSQKFKGKATLTADKSSSTAYMEFRSLTSEDSAVYYCSRETDYFFDYWGQGTTLTVSS
VL: DIQMTQTPASLSASVGETVTITCGASENIYGALNWYQRKQGKSPQLLIYGATNLADGMSSRFSGSGSGRQYSLKISSLHPDDFATYYCQNVLTTPWTFGGGTKLEIK
notes: also called Parental 3B04
Consider B1, for which the half-inhibitory concentration (IC50) in assay [1] was found to be 138 pM. Besides, in assay [2], the “IC50, inhibition of IL-8 secretion, HT-29 + EL4-NC-LIGHT cells” value was determined as 50 pM. The binding result in assay [3] is listed as “binds”. In addition, the “fold less specific to soluble LIGHT than membrane LIGHT” value in assay [4] was more than 100 fold.

B2: 3D12 chimeric IgG4 mAb (antibody, V domains shown)
VH: QVQLQQPGAELVRPGASVTLSCKASDYTFTDSEIHWVKQTPVHGLEWIGEIDPETGGTAYNQKFKGKATLTADKSSSTAYMELRSLTSEDSAVYYCSRETDYFFDYWGQGTTLTVSS
VL: DIQMTQSPASLSASVGETVTITCGASENIYGALNWYQRKQGKSPQLLIYGATNLADGMSSRFSGSGSGRQYSLKISSLHPDDVATYYCQNVLSTPWTFGGGTKLEIK
notes: Chimeric human IgG4 (S-to-P, L-to-E) with human CL, as m1; also called Parental 3D12; 03D12
On to B2, for which the “IC50, inhibition of IL-8 secretion, HT-29 + EL4-NC-LIGHT cells” value in assay [2] turned out to be 320 pM. The binding result in assay [3] was “binds”. In addition, in assay [5], the IC50 was 214 pM.
